Measurements taken from PMC4933460, “Extracellular Regulation of Bone Morphogenetic Protein Activity by the Microfibril Component Fibrillin-1*” (The Journal of Biological Chemistry, 2016).

B1: BMP-7 prodomain, full-length PD (residues 30-292), E. coli (domain or fragment)
chain: not shown
notes: also called full-length BMP-7 PD; source: E. coli, purified by chelating chromatography; not shown: His6, C-terminal, kept

Key:
[1] = target: T1, rF87, N-terminal fragment of fibrillin-1 (Ser19-Ile329) (UniProt P35555 19-329); assay: SPR; PD variants immobilised at 500-800 RU, rF87 injected at 0-80 nM in HBS-EP (no urea); apparent KD; conditions: both partners purified
T1 construct: The sentence of the methods may also give rF87 the tandem C-terminal Strep-tag; it cannot be told; also called fibrillin-1 (rF87); N-terminal end of fibrillin-1

[2] = target: the molecule itself; assay: SPR; PD/PD interaction: 500-800 RU of full-length PD (30-292) or truncated variants (48-292, 55-292) immobilised, 0-320 nM PD variants injected in HBS-EP with 1 M urea; apparent KD
[3] = target: B1; assay: as above; conditions: both partners purified
[4] = target: B1; assay: SPR; BIAcore 2000; BMP-7 GF covalently coupled to a CM5 chip (500 RU), PD variants flown over in HBS-EP pH 7.4 with 1 M urea; 1:1 model with mass transfer; apparent KD = kd/ka; conditions: both partners purified
[5] = target: T2, BMP-7 PD truncation variant 55-292 (UniProt P18075 55-292); assay: as above; conditions: both partners purified
T2 construct: source: E. coli, purified by chelating chromatography

[6] = target: T3, BMP-7 PD truncation variant 65-292 (UniProt P18075 65-292); assay: as above; conditions: both partners purified
T3 construct: source: E. coli, purified by chelating chromatography

[7] = target: T4, BMP-7 PD truncation variant 48-292 (UniProt P18075 48-292); assay: as above; conditions: both partners purified
T4 construct: source: E. coli, purified by chelating chromatography; not shown: His6, C-terminal, kept

[8] = target: T5, BMP-7 PD (30-292) H66A (UniProt P18075 30-292, H66A); assay: ELISA; sandwich ELISA of reconstitution in solution: PD variants dialysed with the GF in TBS with 1 M urea overnight, captured by coated monoclonal anti-His6 antibody (C-terminal His6 of the PD), GF detected with an anti-GF antibody; conditions: both partners purified
T5 construct: source: E. coli, purified by chelating chromatography; not shown: His6, C-terminal, kept

[9] = target: T6, BMP-7 PD (30-292) R67A (UniProt P18075 30-292, R67A); assay: as above; conditions: both partners purified
T6 construct: source: E. coli, purified by chelating chromatography; not shown: His6, C-terminal, kept

[10] = target: T7, BMP-7 PD (30-292) P68A (UniProt P18075 30-292, P68A); assay: as above; conditions: both partners purified
T7 construct: source: E. coli, purified by chelating chromatography; not shown: His6, C-terminal, kept

[11] = target: B1; assay: SPR; E. coli-derived full-length PD (30-292) immobilised, GF flown over in HBS-EP with 1 M urea; apparent KD = kd/ka; conditions: both partners purified
[12] = target: B1; assay: SPR; 1,000 RU of BMP-7 PD immobilised, 0-80 nM GF injected in sodium acetate buffer pH 4.5, 0.15 M NaCl, 3 mM EDTA, 0.005% P20; apparent KD; conditions: both partners purified
[13] = target: the molecule itself; assay: velocity sedimentation in sucrose gradients; 10 μg BMP-7 complex dialysed against TBS with 1 M urea, 5-20% sucrose gradient, 28 fractions, Western blots for PD and GF

T1 sequence (P35555 19-329): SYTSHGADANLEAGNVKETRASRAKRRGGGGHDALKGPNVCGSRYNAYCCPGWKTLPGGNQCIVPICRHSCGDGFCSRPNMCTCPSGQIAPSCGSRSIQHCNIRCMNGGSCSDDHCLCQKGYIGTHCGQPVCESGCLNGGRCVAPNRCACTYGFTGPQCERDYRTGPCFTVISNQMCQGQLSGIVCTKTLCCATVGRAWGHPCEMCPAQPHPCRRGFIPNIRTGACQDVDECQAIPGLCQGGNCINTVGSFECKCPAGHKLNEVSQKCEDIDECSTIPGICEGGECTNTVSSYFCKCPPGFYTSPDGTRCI

## B1
[1]
  Kd: 32 ± 7 nM
[2]
  Kd: 3 ± 0.01 nM

B2: BMP-7 PD variant 218-292 (domain or fragment, UniProt P18075 218-292, looked up)
chain: ASEEGWLVFDITATSNHWVVNPRHNLGLQLSVETLDGQSINPKLAGLIGRHGPQNKQPFMVAFFKATEVHFRSIR
notes: also called Ala218-Arg292; source: E. coli, purified by chelating chromatography
[3]
  Kd: 26.8 ± 3.1 nM

B3: BMP-7 PD variant 241-292 (domain or fragment, UniProt P18075 241-292, looked up)
chain: HNLGLQLSVETLDGQSINPKLAGLIGRHGPQNKQPFMVAFFKATEVHFRSIR
notes: source: E. coli, purified by chelating chromatography
[3]
  Kd: 39.1 ± 3.3 nM

B4: BMP-7 PD variant 30-217 (domain or fragment)
chain: not shown
notes: BMP-7 prodomain, residues 30-217 of the BMP-7 precursor; source: E. coli, purified by chelating chromatography
[1]
  Kd: 27 ± 6 nM

B5: BMP-7 PD variant 30-184 (domain or fragment)
chain: not shown
notes: BMP-7 prodomain, residues 30-184 of the BMP-7 precursor; source: E. coli, purified by chelating chromatography
[1]
  Kd: 38 ± 3 nM

B6: BMP-7 PD truncation variant 74-292 (domain or fragment)
chain: not shown
notes: as for B3
[1]
  Kd: 26 ± 4 nM

B7: BMP-7 growth factor (GF) dimer (ligand, UniProt P18075 293-431, looked up)
chain: STGSKQRSQNRSKTPKNQEALRMANVAENSSSDQRQACKKHELYVSFRDLGWQDWIIAPEGYAAYYCEGECAFPLNSYMNATNHAIVQTLVHFINPETVPKPCCAPTQLNAISVLYFDDSSNVILKKYRNMVVRACGCH
notes: The same GF is a component of the BMP-7 complex m23; also called BMP-7 GF; mature growth factor; source: stably transfected HEK293 EBNA cells; separated from the purified BMP-7 complex in 8 M urea, 1 M NaCl by chelating chromatography (flow-through)
[4]
  Kd: 19.4 nM
[5]
  Kd: 15 ± 3 nM
[6]
  Kd: 8 ± 1 nM
[7]
  Kd: 19 ± 1 nM
[8]
  percent inhibition of complex formation: 30%
[9]
  percent inhibition of complex formation: ~65%
[10]
  percent inhibition of complex formation: ~65%
[11]
  Kd: 31.5 ± 0.2 nM
[12]
  Kd: 20 ± 0.1 nM

B8: BMP-7 prodomain of the HEK293 EBNA cell-expressed BMP-7 complex (domain or fragment)
chain: not shown
notes: Glycosylated (carbohydrate chains absent in the E. coli preparation); also called PD; BMP-7 PD; source: stably transfected HEK293 EBNA cells, purified as part of the BMP-7 complex (chelating chromatography, gel filtration)
[13]
  stoichiometry N: 2
